US20260209386A1 (MYTHIC THERAPEUTICS, published 2026)
Residue numbers refer to the chain shown, from its start.

B1: MYT11115 (antibody, V domains shown)
VH: EVQLVESGGGLVQPGGSLRLSCTASGFSLSTYAMSWVRQAPGKGLEWVGMIYHNDNTYYASWAKGRFTISRDTSKNTVYLQMNSLRAEDTAVYFCARDIGISYYIGVSLWGQGTLVTVSS
VL: EIVMTQSPSTLSASVGDRVIITCQASQSIGTRLSWYQQKPGKAPKLLIYGASKLATGVPSRFSGSGSGAEFTLTISSLQPDDFATYYCLGEYSYTTTDGIAFGQGTKLTVL
notes: IgG
B2: MYT11163 (antibody, V domains shown)
VH: B1 VH with H53I
VL: B1 VL with L89H
notes: IgG
B3: MYT11166 (antibody, V domains shown)
VH: B1 VH with H53I
VL: B1 VL with Y92H
notes: IgG
B4: MYT11120 (antibody, V domains shown)
VH: B1 VH with H53I, Y58H
VL: B1 VL
notes: IgG
B5: MYT11137 (antibody, V domains shown)
VH: B1 VH with H53I, I105H
VL: B1 VL
notes: IgG
B6: MYT11172 (antibody, V domains shown)
VH: B1 VH with H53I
VL: B1 VL with D98H
notes: IgG
B7: MYT11134 (antibody, V domains shown)
VH: B1 VH with H53I, S102H
VL: B1 VL
notes: IgG
B8: MYT11151 (antibody, V domains shown)
VH: B1 VH with H53I
VL: B1 VL with G30H
notes: IgG
B9: MYT11117 (antibody, V domains shown)
VH: B1 VH with H53I, D55H
VL: B1 VL
notes: IgG
B10: MYT11153 (antibody, V domains shown)
VH: B1 VH with H53I
VL: B1 VL with R32H
notes: IgG
B11: MYT11152 (antibody, V domains shown)
VH: B1 VH with H53I
VL: B1 VL with T31H
notes: IgG
B12: MYT11136 (antibody, V domains shown)
VH: B1 VH with H53I, Y104H
VL: B1 VL
notes: IgG
B13: MYT11146 (antibody, V domains shown)
VH: B1 VH with H53I
VL: B1 VL with A25H
notes: IgG
B14: MYT11150 (antibody, V domains shown)
VH: B1 VH with H53I
VL: B1 VL with I29H
notes: IgG
B15: MYT11180 (antibody, V domains shown)
VH: EVQLVESGGGLVQPGGSLRLSCTASHIDLSSYVMGWVRQAPGKGLEWVGYIYGGGGTYYATWARGRFTISRDTSKNTVYLQMNSLRAEDTAVYFCARAAADFYFNLWGQGTLVTVSS
VL: EIVMTQSPSTLSASVGDRVIITCQASQSISSYLAWYQQKPGKAPKLLIYDISDLASGVPSRFSGSGSGAEFTLTISSLQPDDFATYYCQSYYWISNSGAAFGQGTKLTVL
notes: IgG
B16: MYT11197 (antibody, V domains shown)
VH: B15 VH with H26G, T57H
VL: B15 VL
notes: IgG
B17: MYT11224 (antibody, V domains shown)
VH: B15 VH with H26G
VL: B15 VL with S28H
notes: IgG
B18: MYT11184 (antibody, V domains shown)
VH: B15 VH with H26G, S30H
VL: B15 VL
notes: IgG
B19: MYT11182 (antibody, V domains shown)
VH: B15 VH with H26G, D28H
VL: B15 VL
notes: IgG
B20: MYT11229 (antibody, V domains shown)
VH: B15 VH with H26G
VL: B15 VL with L33H
notes: IgG
B21: MYT11210 (antibody, V domains shown)
VH: B15 VH with H26G, A100H
VL: B15 VL
notes: IgG
B22: MYT11225 (antibody, V domains shown)
VH: B15 VH with H26G
VL: B15 VL with I29H
notes: IgG
B23: MYT11194 (antibody, V domains shown)
VH: B15 VH with H26G, G54H
VL: B15 VL
notes: IgG
B24: MYT11196 (antibody, V domains shown)
VH: B15 VH with H26G, G56H
VL: B15 VL
notes: IgG
B25: MYT11222 (antibody, V domains shown)
VH: B15 VH with H26G
VL: B15 VL with S26H
notes: IgG
B26: MYT11221 (antibody, V domains shown)
VH: B15 VH with H26G
VL: B15 VL with A25H
notes: IgG
B27: MYT11213 (antibody, V domains shown)
VH: B15 VH with H26G, Y103H
VL: B15 VL
notes: IgG
B28: MYT11236 (antibody, V domains shown)
VH: B15 VH with H26G
VL: B15 VL with A55H
notes: IgG
B29: MYT11195 (antibody, V domains shown)
VH: B15 VH with H26G, G55H
VL: B15 VL
notes: IgG
B30: MYT11238 (antibody, V domains shown)
VH: B15 VH with H26G
VL: B15 VL with Q89H
notes: IgG
B31: MYT11192 (antibody, V domains shown)
VH: B15 VH with H26G, Y52H
VL: B15 VL
notes: IgG
B32: MYT11193 (antibody, V domains shown)
VH: B15 VH with H26G, G53H
VL: B15 VL
notes: IgG

target: T1, Human PTK7/CCK4 Protein, His Tag, Acro Biosystems PT7-H52H3 (human, UniProt Q13308 31-704); test: BLI, antibody on anti-human Fc sensor, 50 nM PTK7
T1 construct: bought protein; also called Human PTK7 Protein, His Tag, Acro Biosystems; not shown: His tag
T1 sequence: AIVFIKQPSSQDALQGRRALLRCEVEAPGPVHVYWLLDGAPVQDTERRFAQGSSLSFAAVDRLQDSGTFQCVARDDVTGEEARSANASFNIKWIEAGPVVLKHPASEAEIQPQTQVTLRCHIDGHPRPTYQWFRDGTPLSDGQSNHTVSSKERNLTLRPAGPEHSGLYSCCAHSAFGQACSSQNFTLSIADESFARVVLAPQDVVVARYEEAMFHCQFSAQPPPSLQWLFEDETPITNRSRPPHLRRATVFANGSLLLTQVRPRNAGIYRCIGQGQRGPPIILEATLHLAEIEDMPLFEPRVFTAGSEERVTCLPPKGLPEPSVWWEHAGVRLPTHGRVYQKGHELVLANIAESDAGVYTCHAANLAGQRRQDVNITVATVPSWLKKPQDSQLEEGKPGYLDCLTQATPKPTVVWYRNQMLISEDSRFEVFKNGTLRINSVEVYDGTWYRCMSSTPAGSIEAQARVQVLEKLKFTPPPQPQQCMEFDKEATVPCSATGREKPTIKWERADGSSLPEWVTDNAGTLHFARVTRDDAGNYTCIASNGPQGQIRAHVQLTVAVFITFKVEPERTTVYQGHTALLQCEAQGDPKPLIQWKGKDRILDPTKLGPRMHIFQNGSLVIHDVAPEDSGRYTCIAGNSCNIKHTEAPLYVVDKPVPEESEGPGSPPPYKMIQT

Row | Binder | binding result
1 | B1 | binds
2 | B2 | binds
3 | B3 | binds
4 | B4 | binds
5 | B5 | binds
6 | B6 | binds
7 | B7 | binds
8 | B8 | binds
9 | B9 | binds
10 | B10 | binds
11 | B11 | binds
12 | B12 | binds
13 | B13 | binds
14 | B14 | binds
15 | B15 | binds
16 | B16 | binds

Row | Binder | binding result
17 | B17 | binds
18 | B18 | binds
19 | B19 | binds
20 | B20 | binds
21 | B21 | binds
22 | B22 | binds
23 | B23 | binds
24 | B24 | binds
25 | B25 | binds
26 | B26 | binds
27 | B27 | binds
28 | B28 | binds
29 | B29 | binds
30 | B30 | binds
31 | B31 | binds
32 | B32 | binds
